Target: HaHV1 UL36h NLS peptide (residues 1491-1500), FITC/Ahx-labelled (haliotid herpesvirus 1 (HaHV1))
Assay: fluorescence polarisation

## human importin α3 lacking the importin-β binding domain (hIMPα3ΔIBB) (domain or fragment)
  Kd: 193 nM

## human importin α1 lacking the importin-β binding domain (hIMPα1ΔIBB) (domain or fragment)
  Kd: 226 nM
